Measured values taken from paper PMC5626701, “Caspase-1 cleaves PPARγ for potentiating the pro-tumor action of TAMs” (Nature Communications, 2017).

Molecular target: T1, HA-tPPARγΔ64D (THP-1) (human, UniProt P37231-2 65-477)
T1 construct: also called truncated PPARγ; source: THP-1, transfected, in cell extract; not shown: HA, C-terminal, kept
T1 sequence (looked up): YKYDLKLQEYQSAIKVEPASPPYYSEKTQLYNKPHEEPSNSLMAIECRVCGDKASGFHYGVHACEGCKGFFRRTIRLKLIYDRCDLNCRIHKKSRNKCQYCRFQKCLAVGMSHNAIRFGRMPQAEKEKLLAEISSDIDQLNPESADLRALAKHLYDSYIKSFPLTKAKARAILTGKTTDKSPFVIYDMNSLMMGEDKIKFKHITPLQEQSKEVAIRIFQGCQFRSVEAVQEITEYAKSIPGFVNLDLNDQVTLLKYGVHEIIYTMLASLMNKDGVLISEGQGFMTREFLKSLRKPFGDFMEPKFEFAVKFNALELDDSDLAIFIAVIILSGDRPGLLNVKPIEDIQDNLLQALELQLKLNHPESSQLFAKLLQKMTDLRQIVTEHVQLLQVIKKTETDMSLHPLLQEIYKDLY
Assay: co-IP; THP-1 cells transfected with HA-PPARγ or HA-tPPARγΔ64D; extracts precipitated with anti-HA and blotted with anti-MCAD, or precipitated with anti-MCAD and blotted with anti-HA; blots scanned
Conditions: partners not purified

B1: medium-chain acyl-CoA dehydrogenase (MCAD), endogenous in THP-1 (enzyme, human (endogenous in THP-1), UniProt P11310 26-421, looked up)
chain: KANRQREPGLGFSFEFTEQQKEFQATARKFAREEIIPVAAEYDKTGEYPVPLIRRAWELGLMNTHIPENCGGLGLGTFDACLISEELAYGCTGVQTAIEGNSLGQMPIIIAGNDQQKKKYLGRMTEEPLMCAYCVTEPGAGSDVAGIKTKAEKKGDEYIINGQKMWITNGGKANWYFLLARSDPDPKAPANKAFTGFIVEADTPGIQIGRKELNMGQRCSDTRGIVFEDVKVPKENVLIGDGAGFKVAMGAFDKTRPVVAAGAVGLAQRALDEATKYALERKTFGKLLVEHQAISFMLAEMAMKVELARMSYQRAAWEVDSGRRNTYYASIAKAFAGDIANQLATDAVQILGGNGFNTEYPVEKLMRDAKIYQIYEGTSQIQRLIVAREHIDKYKN
notes: medium-chain acyl-CoA dehydrogenase (MCAD), mitochondrial; detected and precipitated with an anti-MCAD antibody; source: endogenous, THP-1 cell extract
For B1, the “fold MCAD bound against full-length PPARγ” value was 8 fold.
